Measurements reported in article PMC10294536.

Experiments:
Settings in all cases: reference: EGFP-HURP wild type; sites S725
GP73 = GP73 (UniProt Q8NBJ4); assay: co-IP of EGFP-HURP with GP73
GM130 = GM130 (UniProt Q08379); assay: co-IP of EGFP-HURP with GM130
GRASP65 = GRASP65 (UniProt Q9BQQ3); assay: co-IP of EGFP-HURP with GRASP65

binding against the reference (GP73): lost
binding against the reference (GM130): lost
binding against the reference (GRASP65): lost
Substance: HURP (from UniProt Q15398) EGFP-HURP 725A
